Test results published in patent US20020127684.

Columns and labels:
GST-ATF2 = molecular target: T1, GST-ATF2
T1 sequence (P15336 whole entry, species assumed, looked up): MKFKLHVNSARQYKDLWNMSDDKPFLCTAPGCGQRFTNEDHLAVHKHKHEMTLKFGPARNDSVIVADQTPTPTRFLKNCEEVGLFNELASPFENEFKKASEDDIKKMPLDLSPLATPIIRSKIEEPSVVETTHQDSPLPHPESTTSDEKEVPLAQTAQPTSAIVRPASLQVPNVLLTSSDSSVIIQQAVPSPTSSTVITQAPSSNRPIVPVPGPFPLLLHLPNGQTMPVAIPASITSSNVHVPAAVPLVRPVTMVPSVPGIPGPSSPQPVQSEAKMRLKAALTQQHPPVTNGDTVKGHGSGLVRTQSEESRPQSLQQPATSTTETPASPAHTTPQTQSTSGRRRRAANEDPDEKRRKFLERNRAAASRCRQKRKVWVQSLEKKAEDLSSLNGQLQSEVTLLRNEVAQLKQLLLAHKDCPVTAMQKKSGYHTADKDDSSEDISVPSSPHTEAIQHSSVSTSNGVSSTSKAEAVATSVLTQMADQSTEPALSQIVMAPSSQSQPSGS

Measured: in vitro kinase assay with gamma-32P ATP: phosphorylation of heterologous substrate

Chain of myelin basic protein (P02687 whole entry): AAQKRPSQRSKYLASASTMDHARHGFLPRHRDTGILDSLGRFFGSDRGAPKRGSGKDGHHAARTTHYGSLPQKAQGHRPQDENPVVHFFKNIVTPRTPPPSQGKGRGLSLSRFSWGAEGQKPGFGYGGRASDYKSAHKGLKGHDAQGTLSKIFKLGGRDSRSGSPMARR

B1: GST-CARK fusion protein (full length human CARK) (protein)
chain: MGNYKSRPTQTCTDEWKKKVSESYVITIERLEDDLQIKEKELTELRNIFGSDEAFSKVNLNYRTENGLSLLHLCCICGGKKSHIRTLMLKGLRPSRLTRNGFTALHLAVYKDNAELITSLLHSGADIQQVGYGGLTALHIATIAGHLEAADVLLQHGANVNIQDAVFFTPLHIAAYYGHEQVTRLLLKFGADVNVSGEVGDRPLHLASAKGFLNIAKLLMEEGSKADVNAQDNEDHVPLHFCSRFGHHDIVKYLLQSDLEVQPHVVNIYGDTPLHLACYNGKFEVAKEIIQISGTESLTKENIFSETAFHSACTYGKSIDLVKFLLDQNVININHQGRDGHTGLHSACYHGHIRLVQFLLDNGADMNLVACDPSRSSGEKDEQTCLMWAYEKGHDAIVTLLKHYKRPQDELPCNEYSQPGGDGSYVSVPSPLGKIKSMTKEKADILLLRAGLPSHFHLQLSEIEFHEIIGSGSFGKVYKGRCRNKIVAIKRYRANTYCSKSDVDMFCREVSILCQLNHPCVIQFVGACLNDPSQFAIVTQYISGGSLFSLLHEQKRILDLQSKLIIAVDVAKGMEYLHNLTQPIIHRDLNSHNILLYEDGHAVVADFGESRFLQSLDEDNMTKQPGNLRWMAPEVFTQCTRYTIKADVFSYALCLWEILTGEIPFAHLKPAAAAADMAYHHIRPPIGYSIPKPISSLLIRGWNACPEGRPEFSEVVMKLEECLCNIELMSPASSNSSGSLSPSSSSDCLVNRGGPGRSHVAALRSRFELEYALNARSYAALSQSAGQYSSQGLSLEEMKRSLQYTPIDKYGYVSDPMSSMHFHSCRNSSSFEDSS
phosphorylated: H1 histone | myelin basic protein | Phas-1 (4E-BP-1) | GST-ATF2

B2: GST-CARK-KD fusion protein (CARK kinase domain, amino acid residues 424 to 835 of SEQ ID NO:2) (protein)
chain: SYVSVPSPLGKIKSMTKEKADILLLRAGLPSHFHLQLSEIEFHEIIGSGSFGKVYKGRCRNKIVAIKRYRANTYCSKSDVDMFCREVSILCQLNHPCVIQFVGACLNDPSQFAIVTQYISGGSLFSLLHEQKRILDLQSKLIIAVDVAKGMEYLHNLTQPIIHRDLNSHNILLYEDGHAVVADFGESRFLQSLDEDNMTKQPGNLRWMAPEVFTQCTRYTIKADVFSYALCLWEILTGEIPFAHLKPAAAAADMAYHHIRPPIGYSIPKPISSLLIRGWNACPEGRPEFSEVVMKLEECLCNIELMSPASSNSSGSLSPSSSSDCLVNRGGPGRSHVAALRSRFELEYALNARSYAALSQSAGQYSSQGLSLEEMKRSLQYTPIDKYGYVSDPMSSMHFHSCRNSSSFEDSS
phosphorylated: H1 histone | myelin basic protein | Phas-1 (4E-BP-1) | GST-ATF2
